One experiment has as its target T1, Gid9 (S. cerevisiae, UniProt P40492 1-516).
T1 sequence: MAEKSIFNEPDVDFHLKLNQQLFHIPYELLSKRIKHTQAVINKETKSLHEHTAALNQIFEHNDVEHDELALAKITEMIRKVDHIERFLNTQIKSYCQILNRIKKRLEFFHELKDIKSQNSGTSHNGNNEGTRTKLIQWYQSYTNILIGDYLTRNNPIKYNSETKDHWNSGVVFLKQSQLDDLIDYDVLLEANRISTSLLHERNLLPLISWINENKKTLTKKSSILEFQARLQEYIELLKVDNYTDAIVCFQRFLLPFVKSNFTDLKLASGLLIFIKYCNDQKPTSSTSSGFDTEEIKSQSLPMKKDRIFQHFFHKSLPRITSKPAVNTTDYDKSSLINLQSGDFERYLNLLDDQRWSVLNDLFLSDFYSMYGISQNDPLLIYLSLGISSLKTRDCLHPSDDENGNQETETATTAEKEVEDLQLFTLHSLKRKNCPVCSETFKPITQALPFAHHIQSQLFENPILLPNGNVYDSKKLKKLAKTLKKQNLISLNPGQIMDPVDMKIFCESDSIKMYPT
In words: […].

For experiment [1], the target named is T2, Gid9 (endogenous, in native GID^Ant) (S. cerevisiae (endogenous in strain …, UniProt P40492 1-516)).
T2 sequence: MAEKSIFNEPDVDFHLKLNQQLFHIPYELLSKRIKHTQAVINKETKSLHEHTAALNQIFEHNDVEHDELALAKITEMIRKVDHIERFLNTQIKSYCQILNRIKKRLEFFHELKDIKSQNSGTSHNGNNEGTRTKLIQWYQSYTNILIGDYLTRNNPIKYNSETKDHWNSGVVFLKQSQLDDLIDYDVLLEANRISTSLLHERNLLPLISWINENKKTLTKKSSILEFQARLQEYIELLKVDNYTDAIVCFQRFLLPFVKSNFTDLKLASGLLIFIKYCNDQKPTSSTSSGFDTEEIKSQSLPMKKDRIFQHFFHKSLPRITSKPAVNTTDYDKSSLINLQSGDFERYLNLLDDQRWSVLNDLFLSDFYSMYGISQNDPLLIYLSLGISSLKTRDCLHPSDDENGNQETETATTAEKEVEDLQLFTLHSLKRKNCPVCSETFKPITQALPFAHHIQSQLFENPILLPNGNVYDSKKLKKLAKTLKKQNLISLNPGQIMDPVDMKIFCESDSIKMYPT
Put plainly: cryo-EM structure.

In experiment [2] the target is T3, Gid1 (endogenous, in native GID^Ant) (S. cerevisiae (endogenous in strain …, UniProt P53076 1-958)).
T3 sequence: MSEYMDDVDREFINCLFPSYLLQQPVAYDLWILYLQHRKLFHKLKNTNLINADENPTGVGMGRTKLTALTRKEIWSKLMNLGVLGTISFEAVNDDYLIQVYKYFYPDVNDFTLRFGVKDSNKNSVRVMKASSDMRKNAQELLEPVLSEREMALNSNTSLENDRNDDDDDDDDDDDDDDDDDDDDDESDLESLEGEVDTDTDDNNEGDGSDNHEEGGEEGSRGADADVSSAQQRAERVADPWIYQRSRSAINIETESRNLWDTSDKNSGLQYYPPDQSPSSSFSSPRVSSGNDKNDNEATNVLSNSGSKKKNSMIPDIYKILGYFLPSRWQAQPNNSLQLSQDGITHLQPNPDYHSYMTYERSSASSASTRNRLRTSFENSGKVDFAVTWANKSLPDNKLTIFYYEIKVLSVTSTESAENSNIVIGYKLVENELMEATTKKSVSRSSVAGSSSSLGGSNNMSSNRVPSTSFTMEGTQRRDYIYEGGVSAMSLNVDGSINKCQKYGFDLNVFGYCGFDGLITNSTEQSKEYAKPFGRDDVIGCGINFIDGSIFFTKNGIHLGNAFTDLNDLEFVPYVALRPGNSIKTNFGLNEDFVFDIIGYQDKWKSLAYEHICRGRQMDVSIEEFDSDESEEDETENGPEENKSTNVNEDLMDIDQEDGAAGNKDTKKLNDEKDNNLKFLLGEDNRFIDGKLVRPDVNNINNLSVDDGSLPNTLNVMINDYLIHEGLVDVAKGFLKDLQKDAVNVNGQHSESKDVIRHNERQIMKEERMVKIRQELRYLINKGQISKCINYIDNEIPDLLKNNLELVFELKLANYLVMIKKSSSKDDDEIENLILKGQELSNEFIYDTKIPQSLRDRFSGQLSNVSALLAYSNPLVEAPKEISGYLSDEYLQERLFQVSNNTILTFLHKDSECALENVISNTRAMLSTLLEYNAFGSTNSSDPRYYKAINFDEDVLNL
In words: cryo-EM structure.

Another experiment addresses T4, Gid1 (S. cerevisiae, UniProt P53076 1-958).
T4 sequence: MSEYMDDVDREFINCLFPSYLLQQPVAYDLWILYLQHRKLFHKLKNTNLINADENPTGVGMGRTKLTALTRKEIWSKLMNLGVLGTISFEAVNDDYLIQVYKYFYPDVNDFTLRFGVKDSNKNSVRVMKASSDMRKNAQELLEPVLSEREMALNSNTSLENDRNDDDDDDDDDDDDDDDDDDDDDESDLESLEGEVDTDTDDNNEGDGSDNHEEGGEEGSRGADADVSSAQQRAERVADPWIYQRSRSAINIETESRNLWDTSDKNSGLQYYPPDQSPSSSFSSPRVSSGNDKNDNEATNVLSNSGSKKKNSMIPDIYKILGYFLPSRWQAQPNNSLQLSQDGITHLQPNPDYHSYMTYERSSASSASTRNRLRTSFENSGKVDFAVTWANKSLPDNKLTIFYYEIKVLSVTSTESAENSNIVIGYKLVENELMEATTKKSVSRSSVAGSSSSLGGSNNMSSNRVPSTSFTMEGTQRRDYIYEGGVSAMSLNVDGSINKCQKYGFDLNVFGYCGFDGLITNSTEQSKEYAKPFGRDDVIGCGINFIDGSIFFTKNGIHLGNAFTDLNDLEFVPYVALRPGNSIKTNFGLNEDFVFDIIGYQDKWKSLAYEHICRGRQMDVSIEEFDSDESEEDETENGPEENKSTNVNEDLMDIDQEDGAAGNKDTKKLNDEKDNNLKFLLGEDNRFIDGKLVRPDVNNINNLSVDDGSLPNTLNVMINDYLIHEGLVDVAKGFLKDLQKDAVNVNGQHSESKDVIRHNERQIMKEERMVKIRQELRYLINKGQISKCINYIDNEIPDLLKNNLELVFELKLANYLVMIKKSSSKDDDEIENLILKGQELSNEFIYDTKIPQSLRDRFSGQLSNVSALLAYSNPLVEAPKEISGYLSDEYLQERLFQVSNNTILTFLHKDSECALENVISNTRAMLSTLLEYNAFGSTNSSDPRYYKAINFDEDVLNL
In words: […].

B1: Gid2 (natural protein)
chain: MSELLDSFETEFAKFYTDSNLEETNLQKCLDHTHEFKSQLKKLKAHLNKHIQESKPEVYNKLSDKEKQKFKRKRELIIEKLSKSQRQWDHSVKKQIKYVSQQSNRFNKSTLNKLKEFDIDSVYVNKLPKETMENVNEAIGYHILRYSIDNMPLGNKNEAFQYLKDVYGITNKESTEFIEMGQIVHDLKKGDTESCLKWCSNEMESLSSNHTALSSLKFDLYTLSAMQIVKHGNPVELYYQITQNAPLDCFRHREKELMQNVVPLLTKSLIGQPIEDIDSKVNKELKECTSLFIKEYCAAKHIFFDSPLFLIVLSGLISFQFFIKYKTIRELAHVDWTTKDELPFDVKLPDFLTHFHPIFICPVLKEETTTENPPYSLACHHIISKKALDRLSKNGTITFKCPYCPVNTSMSSTKKVRFVML
With B1, the binding result with Gid9 is “binds”.

B2: Gid8 with 3X Flag tag at the C-terminus (endogenous, strain CRLY45) (natural protein)
chain: MTISTLSNETTKSGSCSGQGKNGGKDFTYGKKCFTKEEWKEQVAKYSAMGELYANKTIHYPLKIQPNSSGGSQDEGFATIQTTPIEPTLPRLLLNYFVSMAYEDSSIRMAKELGFIRNNKDIAVFNDLYKIKERFHIKHLIKLGRINEAMEEINSIFGLEVLEETFNATGSYTGRTDRQQQQQQQQFDIDGDLHFKLLLLNLIEMIRSHHQQENITKDSNDFILNLIQYSQNKLAIKASSSVKKMQELELAMTLLLFPLSDSADSGSIKLPKSLQNLYSISLRSKIADLVNEKLLKFIHPRIQFEISNNNSKFPDLLNSDKKIITQNFTVYNNNLVNGSNGTKITHISSDQPINEKMSSNEVTAAANSVWLNQRDGNVGTGSAATTFHNLENKNYWNQTSELLSSSNGKEKGLEFNNYYSSEFPYEPRLTQIMKLWCWCENQLHHNQIGVPRVEN
In the case of B2, the binding result in experiment [1] and in experiment [2] was “binds” throughout.

B3: Gid8 (natural protein)
chain: MTISTLSNETTKSGSCSGQGKNGGKDFTYGKKCFTKEEWKEQVAKYSAMGELYANKTIHYPLKIQPNSSGGSQDEGFATIQTTPIEPTLPRLLLNYFVSMAYEDSSIRMAKELGFIRNNKDIAVFNDLYKIKERFHIKHLIKLGRINEAMEEINSIFGLEVLEETFNATGSYTGRTDRQQQQQQQQFDIDGDLHFKLLLLNLIEMIRSHHQQENITKDSNDFILNLIQYSQNKLAIKASSSVKKMQELELAMTLLLFPLSDSADSGSIKLPKSLQNLYSISLRSKIADLVNEKLLKFIHPRIQFEISNNNSKFPDLLNSDKKIITQNFTVYNNNLVNGSNGTKITHISSDQPINEKMSSNEVTAAANSVWLNQRDGNVGTGSAATTFHNLENKNYWNQTSELLSSSNGKEKGLEFNNYYSSEFPYEPRLTQIMKLWCWCENQLHHNQIGVPRVEN
For B3, the binding result in the experiment with Gid9 and in the experiment with Gid1 was “binds” in each case.

For the origin of these results see doi:10.1101/824060 (bioRxiv, 2019).
